Common to all, as to assay: SPOT array
In assay [1] the target is T1, Yhr016c SH3 (YSC84_YEAST), P32793.
T1 chain: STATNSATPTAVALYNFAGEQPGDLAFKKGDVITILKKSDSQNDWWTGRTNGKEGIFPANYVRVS

The target of assay [2] is T2, Rvs167 SH3 (RV167_YEAST), P39743.
T2 chain: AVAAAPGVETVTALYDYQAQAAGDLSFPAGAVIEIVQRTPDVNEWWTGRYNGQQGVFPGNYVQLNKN

Assay [3] has as its target T3, Boi2 SH3 (BOI2_YEAST), P39969.
T3 chain: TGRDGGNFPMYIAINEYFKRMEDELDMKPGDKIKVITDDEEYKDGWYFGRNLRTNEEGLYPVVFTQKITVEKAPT

Assay [4] has as its target T4, Yfr024 SH3 (LSB3_YEAST), P43603.
T4 chain: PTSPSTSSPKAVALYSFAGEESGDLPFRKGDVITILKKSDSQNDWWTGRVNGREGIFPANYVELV

Assay [5] has as its target T5, Boi1 SH3 (BOI1_YEAST), P38041.
T5 chain: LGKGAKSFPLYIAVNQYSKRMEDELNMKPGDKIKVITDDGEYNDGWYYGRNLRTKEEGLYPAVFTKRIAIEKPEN

For VDPPFMPFRDAGYS [YFR028C 120-133], the normalised SPOT signal, Boehringer light units (BLU); mean over the file's lines of this peptide was -0 in assay [1]; 23.3 in assay [2]; 37.7 in assay [3]; 579 in assay [4]; 70.9 in assay [5].
For VETPPKPIKKDVRF [YDR085C 535-548], the normalised SPOT signal, Boehringer light units (BLU); mean over the file's lines of this peptide was 372 in assay [1]; 86.3 in assay [2]; 70.6 in assay [3]; 677 in assay [4]; 65 in assay [5].
For TTAPRGPKKAQPAQ [YGR097W 176-189], the normalised SPOT signal, Boehringer light units (BLU); mean over the file's lines of this peptide is 264 in assay [1]; 89.5 in assay [2]; 43.9 in assay [3]; 169 in assay [4]; 138 in assay [5].
In the same order, the values of VAKPKKPARPTMST [YNL298W 513-526] are 4950, 86.9, 77.1, 9080 and 71.1.
The matching figures for VFSPTNPLRIKIAR [YGR217W 326-339]: 151, 1.8, 16.2, 648 and 110.
Take VAPPPLPNRQLPNL [YNL094W 505-518]: the normalised SPOT signal, Boehringer light units (BLU); mean over the file's lines of this peptide in assay [1] is 27300; in assay [2] it was 32500; in assay [3] it was 73.2; in assay [4] it was 32400; in assay [5] it was 1470.
Consider TTVPTKPKKPHDIS [YKR084C 145-158], for which the normalised SPOT signal, Boehringer light units (BLU); mean over the file's lines of this peptide in assay [1] amounted to 114; in assay [2], 18.4; in assay [3], 22.9; in assay [4] it was 1540; in assay [5], 81.6.
The matching figures for VGNPEGPEKPNKKF [YKL060C 315-328]: 131, 34.3, 50.6, 186 and 255.
The matching figures for VDAPINPTKILTFI [YBR163W 375-388]: 34, 67.9, 69.3, 0 and 52.9.
Consider VHGPGIPMKSLEVA [YBR297W 381-394], for which the normalised SPOT signal, Boehringer light units (BLU); mean over the file's lines of this peptide in assay [1] stood at 381; in assay [2], 43.5; in assay [3] it was 49.9; in assay [4] it was 32.9; in assay [5], 44.3.
As to VENPFLPAKEERTG [YIL115C 910-923], the normalised SPOT signal, Boehringer light units (BLU); mean over the file's lines of this peptide is 188 in assay [1]; 0 in assay [2]; 15.7 in assay [3]; 82.3 in assay [4]; 7.6 in assay [5].
The matching figures for VERPSSPTKTITTE [YML109W 711-724]: 159, 24.4, 45.2, 0 and 39.5.
In the same order, the values of VHDPNIPLRPKEII [YGR184C 643-656] are 110, 51.5, 57.8, 562 and 22.9.
As to TTRPAPPSKAKDVA [YAL011W 347-360], the normalised SPOT signal, Boehringer light units (BLU); mean over the file's lines of this peptide in assay [1] came out at 251; in assay [2], 125; in assay [3], 72; in assay [4] it was 767; in assay [5], 61.3.
Turning to VFLPTAPSKHMDFA [YCR042C 478-491], the normalised SPOT signal, Boehringer light units (BLU); mean over the file's lines of this peptide in assay [1] was 44.5; in assay [2] it was 208; in assay [3] it was 46.3; in assay [4] it was 242; in assay [5], 100.
The matching figures for VSPPSFPSRRSETS [YPL006W 878-891]: 42100, 1730, 117, 40300 and 703.
As for VHGPGVPVKTLEIA [YGR288W 386-399], the normalised SPOT signal, Boehringer light units (BLU); mean over the file's lines of this peptide is 116 in assay [1]; 52.7 in assay [2]; 56.6 in assay [3]; 43.4 in assay [4]; 114 in assay [5].
As for VHGPVIPMKALEIA [YPR196W 383-396], the normalised SPOT signal, Boehringer light units (BLU); mean over the file's lines of this peptide in assay [1] came out at 92.9; in assay [2] it was 27.7; in assay [3], 27.7; in assay [4], 138; in assay [5], 56.4.
As to VDFPIFPRRFAKVE [YJL091C 152-165], the normalised SPOT signal, Boehringer light units (BLU); mean over the file's lines of this peptide in assay [1] amounted to 1680; in assay [2] it was 512; in assay [3], 135; in assay [4], 16100; in assay [5], 2050.

Source of the values: publication PMC314469, “Protein Interaction Networks by Proteome Peptide Scanning” (PLoS Biology, 2004).
